Assay results as given in patent publication US20110263454A1, “Methods of Identifying Functional Characteristics of Promoters, Transcription Modifying Proteins and Transcription Modulating Agents” (Salk Institute for Biological Studies, priority 2008, published 2011).

B1: RXRb: Retinoic X Receptor β (NR2B2), cDNA driver (protein, UniProt P28702 1-533, looked up)
Retinoic acid receptor …: MSWAARPPFLPQRHAAGQCGPVGVRKEMHCGVASRWRRRRPWLDPAAAAAAAVAGGEQQTPEPEPGEAGRDGMGDSGRDSRSPDSSSPNPLPQGVPPPSPPGPPLPPSTAPSLGGSGAPPPPPMPPPPLGSPFPVISSSMGSPGLPPPAPPGFSGPVSSPQINSTVSLPGGGSGPPEDVKPPVLGVRGLHCPPPPGGPGAGKRLCAICGDRSSGKHYGVYSCEGCKGFFKRTIRKDLTYSCRDNKDCTVDKRQRNRCQYCRYQKCLATGMKREAVQEERQRGKDKDGDGEGAGGAPEEMPVDRILEAELAVEQKSDQGVEGPGGTGGSGSSPNDPVTNICQAADKQLFTLVEWAKRIPHFSSLPLDDQVILLRAGWNELLIASFSHRSIDVRDGILLATGLHVHRNSAHSAGVGAIFDRVLTELVSKMRDMRMDKTELGCLRAIILFNPDAKGLSNPSEVEVLREKVYASLETYCKQKYPEQQGRFAKLLLRLPALRSIGLKCLEHLFFFKLIGDTPIDTFLMEMLEAPHQLA
B2: FXR: Farnesoid X Receptor (NR1H4), cDNA driver (protein, UniProt Q96RI1 1-486, looked up)
Bile acid receptor: MVMQFQGLENPIQISPHCSCTPSGFFMEMMSMKPAKGVLTEQVAGPLGQNLEVEPYSQYSNVQFPQVQPQISSSSYYSNLGFYPQQPEEWYSPGIYELRRMPAETLYQGETEVAEMPVTKKPRMGASAGRIKGDELCVVCGDRASGYHYNALTCEGCKGFFRRSITKNAVYKCKNGGNCVMDMYMRRKCQECRLRKCKEMGMLAECMYTGLLTEIQCKSKRLRKNVKQHADQTVNEDSEGRDLRQVTSTTKSCREKTELTPDQQTLLHFIMDSYNKQRMPQEITNKILKEEFSAEENFLILTEMATNHVQVLVEFTKKLPGFQTLDHEDQIALLKGSAVEAMFLRSAEIFNKKLPSGHSDLLEERIRNSGISDEYITPMFSFYKSIGELKMTQEEYALLTAIVILSPDRQYIKDREAVEKLQEPLLDVLQKLCKIHQPENPQHFACLLGRLTELRTFNHHHAEMLMSWRVNDHKFTPLLCEIWDVQ
B3: CAR: Constitutive Androstane Receptor (NR1I3), cDNA driver (protein, UniProt Q14994 1-352, looked up)
Nuclear receptor subfamily 1 …: MASREDELRNCVVCGDQATGYHFNALTCEGCKGFFRRTVSKSIGPTCPFAGSCEVSKTQRRHCPACRLQKCLDAGMRKDMILSAEALALRRAKQAQRRAQQTPVQLSKEQEELIRTLLGAHTRHMGTMFEQFVQFRPPAHLFIHHQPLPTLAPVLPLVTHFADINTFMVLQVIKFTKDLPVFRSLPIEDQISLLKGAAVEICHIVLNTTFCLQTQNFLCGPLRYTIEDGARVSPTVGFQVEFLELLFHFHGTLRKLQLQEPEYVLLAAMALFSPDRPGVTQRDEIDQLQEEMALTLQSYIKGQQRRPRDRFLYAKLLGLLAELRSINEAYGYQIQHIQGLSAMMPLLQEICS
B4: PXR: Pregnane X Receptor (NR1I2), cDNA driver (protein, UniProt O75469 1-434, looked up)
Nuclear receptor subfamily 1 …: MEVRPKESWNHADFVHCEDTESVPGKPSVNADEEVGGPQICRVCGDKATGYHFNVMTCEGCKGFFRRAMKRNARLRCPFRKGACEITRKTRRQCQACRLRKCLESGMKKEMIMSDEAVEERRALIKRKKSERTGTQPLGVQGLTEEQRMMIRELMDAQMKTFDTTFSHFKNFRLPGVLSSGCELPESLQAPSREEAAKWSQVRKDLCSLKVSLQLRGEDGSVWNYKPPADSGGKEIFSLLPHMADMSTYMFKGIISFAKVISYFRDLPIEDQISLLKGAAFELCQLRFNTVFNAETGTWECGRLSYCLEDTAGGFQQLLLEPMLKFHYMLKKLQLHEEEYVLMQAISLFSPDRPGVLQHRVVDQLQEQFAITLKSYIECNRPQPAHRFLFLKIMAMLTELRSINAQHTQRLLRIQDIHPFATPLMQELFGITGS
B5: RXRg: Retinoic X Receptor γ (NR2B3), cDNA driver (protein, UniProt P48443 1-463, looked up)
Retinoic acid receptor …: MYGNYSHFMKFPAGYGGSPGHTGSTSMSPSAALSTGKPMDSHPSYTDTPVSAPRTLSAVGTPLNALGSPYRVITSAMGPPSGALAAPPGINLVAPPSSQLNVVNSVSSSEDIKPLPGLPGIGNMNYPSTSPGSLVKHICAICGDRSSGKHYGVYSCEGCKGFFKRTIRKDLIYTCRDNKDCLIDKRQRNRCQYCRYQKCLVMGMKREAVQEERQRSRERAESEAECATSGHEDMPVERILEAELAVEPKTESYGDMNMENSTNDPVTNICHAADKQLFTLVEWAKRIPHFSDLTLEDQVILLRAGWNELLIASFSHRSVSVQDGILLATGLHVHRSSAHSAGVGSIFDRVLTELVSKMKDMQMDKSELGCLRAIVLFNPDAKGLSNPSEVETLREKVYATLEAYTKQKYPEQPGRFAKLLLRLPALRSIGLKCLEHLFFFKLIGDTPIDTFLMEMLETPLQIT

What follows are molecules tested on hPOMC promoter (assay: NHR-promoter luciferase screen, hPOMC promoter). Settings: hPOMC promoter; HR/ligand component.
Assay type: cell-based, human
Method in brief: (§1)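 CV-1 cells were co-transfected with 50 ng NHR (homodimer or NHR/RXR heterodimer), 100 ng promoter-luciferase construct and 50 ng LacZ. Luciferase was normalized to LacZ and to a no-NHR/no-ligand control.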

| Molecule | Normalized Luc. act., normalized to control | Luc. act., normalized to lacZ |
| --- | --- | --- |
| B1 | 0.0 | – |
| B2 | 0.6 | 2.8 |
| B3 | 1.0 | 4.3 |
| B4 | 1.0 | 4.2 |
| B5 | 0.6 | 2.5 |

Same assay, conditions: transcription factor +/- ligand; control = 1.00

| Molecule | hPOMC promoter reporter activity |
| --- | --- |
| B1 | 0.00 |
| B2 | 0.65 |
| B3 | 1.00 |
| B4 | 0.98 |
| B5 | 0.58 |

What follows are molecules tested on mLeptin promoter (assay: NHR-promoter luciferase screen, mLeptin promoter). Settings: Table 7; mLeptin.
Assay type: cell-based, mouse
Method in brief: as §1

| Molecule | Luc. act., normalized to lacZ | Normalized Luc. act., normalized to control |
| --- | --- | --- |
| B1 | 1.5 | 0.5 |
| B2 | 2.8 | 0.9 |
| B3 | 2.7 | 0.9 |
| B4 | 4.1 | 1.4 |
| B5 | 2.1 | 0.7 |

Same assay, conditions: Table 6d; luciferase activity relative to control (control = 1.00)

| Molecule | Results of assays of transcription factor (+/- ligand) with mLeptin |
| --- | --- |
| B1 | 0.50 |
| B2 | 0.95 |
| B3 | 0.93 |
| B4 | 1.40 |
| B5 | 0.70 |

Each molecule was assayed on mUCP3 promoter (assay: NHR-promoter luciferase screen, mUCP3 promoter). Settings: mUCP3 promoter reporter; HR without or with its ligand; relative to control.
Assay type: cell-based, mouse
Method in brief: as §1

| Molecule | Normalized Luc. act., normalized to control |
| --- | --- |
| B1 | 0.8 |
| B2 | 1.3 |
| B3 | 0.9 |
| B4 | 1.3 |
| B5 | 1.4 |

Same assay, conditions: mUCP3 promoter reporter; hormone receptor (HR) without or with its ligand

| Molecule | Luc. act., normalized to lacZ |
| --- | --- |
| B1 | 0.6 |
| B2 | 0.9 |
| B3 | 0.6 |
| B4 | 0.9 |
| B5 | 1.0 |

Same assay, conditions: transcription factor +/- ligand; control = 1.00

| Molecule | mUCP3 promoter reporter activity |
| --- | --- |
| B1 | 0.83 |
| B2 | 1.30 |
| B3 | 0.90 |
| B4 | 1.34 |
| B5 | 1.41 |

Each molecule was assayed on hMDR1 promoter (assay: NHR-promoter luciferase screen, hMDR1 promoter). Settings: MDR1 promoter; HR/ligand component.
Assay type: cell-based, human
Method in brief: as §1

| Molecule | Luc. act., normalized to lacZ | Normalized Luc. act., normalized to control |
| --- | --- | --- |
| B1 | 0.1 | 0.3 |
| B2 | 0.2 | 0.6 |
| B3 | 0.2 | 0.7 |
| B4 | 0.3 | 1.1 |
| B5 | 0.2 | 0.7 |

Same assay, conditions: transcription factor +/- ligand; control = 1.00

| Molecule | hMDR1 promoter reporter activity |
| --- | --- |
| B1 | 0.28 |
| B2 | 0.61 |
| B3 | 0.68 |
| B4 | 1.10 |
| B5 | 0.65 |

These molecules were tested on mGhrelin promoter (assay: NHR-promoter luciferase screen, mGhrelin promoter). Settings: Table 8; mGhrelin.
Assay type: cell-based, mouse
Method in brief: as §1

| Molecule | Luc. act., normalized to lacZ | Normalized Luc. act., normalized to control |
| --- | --- | --- |
| B1 | 62.9 | 1.2 |
| B2 | 65.7 | 1.3 |
| B3 | 52.2 | 1.0 |
| B4 | 136.2 | 2.6 |
| B5 | 59.0 | 1.1 |

Same assay, conditions: Table 6d; luciferase activity relative to control (control = 1.00)

| Molecule | Results of assays of transcription factor (+/- ligand) with mGhrelin |
| --- | --- |
| B1 | 1.20 |
| B2 | 1.26 |
| B3 | 1.00 |
| B4 | 2.61 |
| B5 | 1.13 |
